This is an account of results in patent US20230218738A1 (Pfizer, published 2023).

What all share (test): BLI (Octet), F on anti-HIS tip, 20 nM mAb
The target in experiment [1] is RSV F protein mutant pXCS873 (RSV A2, UniProt P03420 26-109).
The target of experiment [2] is DS-Cav1 (UniProt P03420 26-513).
In experiment [3] the target is RSV F protein mutant pXCS874 (RSV A2, UniProt P03420 26-109).
Experiment [4] concerns the target RSV F protein mutant pXCS839 (RSV A2, UniProt P03420 26-109).
In experiment [5] the target is RSV F protein mutant pXCS875 (RSV A2, UniProt P03420 26-109).
The target in experiment [6] is RSV F protein mutant pXCS804 (RSV A2, UniProt P03420 26-109).
Experiment [7] has as its target RSV F protein mutant pXCS877 (RSV A2, UniProt P03420 26-109).
For experiment [8], the target named is RSV F protein mutant pXCS806 (RSV A2, UniProt P03420 26-109).
In experiment [9] the target is RSV F protein mutant pXCS898 (RSV A2, UniProt P03420 26-109).
For experiment [10], the target named is RSV F protein mutant pXCS809 (RSV A2, UniProt P03420 26-109).
Experiment [11] concerns the target RSV F protein mutant pXCS805 (RSV A2, UniProt P03420 26-109).
The target in experiment [12] is RSV F protein mutant pXCS811 (RSV A2, UniProt P03420 26-109).
Experiment [13] addresses RSV F protein mutant pXCS749 (RSV A2, UniProt P03420 26-109).

B1: AM22 (antibody, V domains shown)
VH: QVQLVQSGAEVKKPGATVKVSCKISGHTLIKLSIHWVRQAPGKGLEWMGGYEGEVDEIFYAQKFQHRLTVIADTATDTVYMELGRLTSDDTAVYFCGTLGVTVTEAGLGIDDYWGQGTLVTVSS
VL: EIVLTQSPGTLSLSPGERATLSCRASQIVSRNHLAWYQQKPGQAPRLLIFGASSRATGIPVRFSGSGSGTDFTLTINGLAPEDFAVYYCLSSDSSIFTFGPGTKVDFK
B1: the “Response (nm shift)” value in experiment [1] is 0.192 nm; in experiment [2], 0.469 nm; in experiment [3], 0.444 nm; in experiment [4], 0.39 nm; in [5], 0.205 nm; in [6], 0.267 nm. Besides, the “Response (nm shift)” value in experiment [7] worked out at 0.213 nm; in experiment [8] it was 0.152 nm; in experiment [9] it was 0.416 nm; in [10] it was 0.185 nm; in [11], 0.173 nm; in experiment [12] it was 0.322 nm.

B2: MPE8 (antibody, V domains shown)
VH: EVQLVESGGGLVKPGGSLRLSCAASGFTFSSYSMNWVRQAPGKGLEWVSSISASSSYSDYADSAKGRFTISRDNAKTSLFLQMNSLRAEDTAIYFCARARATGYSSITPYFDIWGQGTLVTVSS
VL: QSVVTQTPSVSGAPGQRVTISCTGSSSNIGAGYDVHWYQQLPGTAPKLLIYDNNNRPSGVPDRFSASKSGTSASLAITGLQAEDEADYYCQSYDRNLSGVFGTGTKVTVL
notes: also called MPEG
As for B2, the “Response (nm shift)” value in experiment [13] is 0.206 nm.
